# Assay results from PMC2939854 (2010).
# Molecular target: GLP-1 receptor (Rattus norvegicus) (UniProt P32301)
# Assay: competitive cellular ELISA against GLP-1/hIgG2 (INS-1 cells)
# Sequence of Exendin-4 (P26349 48-86): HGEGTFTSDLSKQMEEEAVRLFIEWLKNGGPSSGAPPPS
# Sequence of GLP-1 receptor (Rattus norvegicus) (P32301 22-463): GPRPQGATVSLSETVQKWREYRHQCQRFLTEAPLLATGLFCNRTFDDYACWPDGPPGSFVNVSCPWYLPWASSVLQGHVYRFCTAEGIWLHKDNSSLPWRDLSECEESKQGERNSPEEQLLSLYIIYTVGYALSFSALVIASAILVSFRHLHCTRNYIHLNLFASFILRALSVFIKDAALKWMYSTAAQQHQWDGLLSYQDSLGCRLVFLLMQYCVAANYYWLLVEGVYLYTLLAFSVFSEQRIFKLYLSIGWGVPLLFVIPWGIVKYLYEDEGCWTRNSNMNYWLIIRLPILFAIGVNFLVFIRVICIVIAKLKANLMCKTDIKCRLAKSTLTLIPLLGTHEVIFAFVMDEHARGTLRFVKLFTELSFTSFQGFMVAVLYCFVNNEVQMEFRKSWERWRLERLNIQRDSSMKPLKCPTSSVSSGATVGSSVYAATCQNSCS
substance,measurement,value
Exendin-4 (from UniProt P26349),IC50,8.15 nM
